One experiment has as its target T1, B8_BP-LATY.
T1 construct: positions 13-16 worked out from the printed Y16; source: E. coli BL21(DE3*), purified (Ni-NTA, SEC); not shown: His tag, C-terminal, kept
Description: BLI; Octet RED96; His-tagged and Avi-tagged minibinders immobilised on Ni-NTA and streptavidin sensor tips, dipped into wells with different concentrations of integrin; association 900 s, dissociation 1200 s. Conditions: both partners purified. (In general: Biolayer interferometry detects binding as a change in optical thickness at a sensor tip.)

For a further experiment, the target named is T2, B8_BP_dslf.
T2 construct: de novo designed RGD miniprotein with redesigned, extended β-loop and the motif MAVY in place of LXX(L/I); For BLI His-tagged (Ni-NTA tips) or N-terminally Avi-tagged, biotinylated (streptavidin tips); The methods of model building name a design model 'B8_BP2_dslf'; also called MAVY; source: E. coli BL21(DE3*), purified (Ni-NTA, SEC); not shown: His tag, C-terminal, kept
The description is as above. Particulars: both partners purified.

T1 sequence (main, as listed by the source): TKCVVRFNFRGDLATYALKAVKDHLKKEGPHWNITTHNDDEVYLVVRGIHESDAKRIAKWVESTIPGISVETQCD

B1: human integrin αvβ8 (soluble, construct not stated) (complex)
chain 1: FNLDVDSPAEYSGPEGSYFGFAVDFFVPSASSRMFLLVGAPKANTTQPGIVEGGQVLKCDWSSTRRCQPIEFDATGNRDYAKDDPLEFKSHQWFGASVRSKQDKILACAPLYHWRTEMKQEREPVGTCFLQDGTKTVEYAPCRSQDIDADGQGFCQGGFSIDFTKADRVLLGGPGSFYWQGQLISDQVAEIVSKYDPNVYSIKYNNQLATRTAQAIFDDSYLGYSVAVGDFNGDGIDDFVSGVPRAARTLGMVYIYDGKNMSSLYNFTGEQMAAYFGFSVAATDINGDDYADVFIGAPLFMDRGSDGKLQEVGQVSVSLQRASGDFQTTKLNGFEVFARFGSAIAPLGDLDQDGFNDIAIAAPYGGEDKKGIVYIFNGRSTGLNAVPSQILEGQWAARSGCPPSFGYSMKGATDIDKNGYPDLIVGAFGVDRAILYRARPVITVNAGLEVYPSILNQDNKTCSLPGTALKVSCFNVRFCLKADGKGVLPRKLNFQVELLLDKLKQKGAIRRALFLYSRSPSHSKNMTISRGGLMQCEELIAYLRDESEFRDKLTPITIFMEYRLDYRTAADTTGLQPILNQFTPANISRQAHILL
chain 2: EDNRCASSNAASCARCLALGPECGWCVQEDFISGGSRSERCDIVSNLISKGCSVDSIEYPSVHVIIPTENEINTQVTPGEVSIQLRPGAEANFMLKVHPLKKYPVDLYYLVDVSASMHNNIEKLNSVGNDLSRKMAFFSRDFRLGFGSYVDKTVSPYISIHPERIHNQCSDYNLDCMPPHGYIHVLSLTENITEFEKAVHRQKISGNIDTPEGGFDAMLQAAVCESHIGWRKEAKRLLLVMTDQTSHLALDSKLAGIVCPNDGNCHLKNNVYVKSTTMEHPSLGQLSEKLIDNNINVIFAVQGKQFHWYKDLLPLLPGTIAGEIESKAANLNNLVVEAYQKLISEVKVQVENQVQGIYFNITAICPDGSRKPGMEGCRNVTSNDEVLFNVTVTMKKCDVTGGKNYAIIKPIGFNETAKIHI
In the case of B1, the Kd is 0.5 nM with B8_BP-LATY and 1.9 nM in the experiment with B8_BP_dslf.

A word on the Kd: it is a measure of binding affinity in units of concentration. High values mean lower affinity, low ones higher affinity.

For the origin of these results see publication PMC10500007, “De novo design of highly selective miniprotein inhibitors of integrins αvβ6 and αvβ8” (Nature Communications, 2023).
